Measured values published in article PMC11982464, “Structural insight into the catalytic mechanism of the bifunctional enzyme L-fucokinase/GDP-fucose pyrophosphorylase” (The Journal of Biological Chemistry, 2025).

Experiments:
[1] = tested on: C[C@@H]1O[C@H](OP(=O)(O)O)[C@@H](O)[C@H](O)[C@@H]1O; test: purified protein; conditions: co-substrate GTP, 50 mM Hepes pH 7.5, 2 mM MgCl2
[2] = biological target: the molecule itself; test: AUC + SEC-MALS; SV-AUC at 20 °C, about 0.5 mg/ml, 50 mM Tris pH 8.0, 150 mM NaCl, 40,000 rpm; SEC-MALS at 1 mg/ml in 50 mM Tris pH 8.0, 150 mM NaCl, ENrich SEC 650 column
[3] = GDP-fucose pyrophosphorylase site

“FKP-FL (L-fucokinase/GDP-β-L-fucose pyrophosphorylase, full length) (Bacteroides fragilis)” showed a Km [1, 3] of 40 ± 4 µM, a kcat [1, 3] of 5.6 ± 0.3 s⁻¹ and a kcat/Km [1, 3] of 140000 M⁻¹ s⁻¹.

Molecule SUMO-FKP-NTD (Bacteroides fragilis) has a Km [1] of 80 ± 8 µM.

B1: C-terminal domain of FKP (FKP-CTD), individually prepared (domain or fragment, Bacteroides fragilis 9343, UniProt Q58T34 518-949, looked up)
chain: MPELLPEDALQMSRIHNRMLRARILKLDGKDYRPEEQAAFDLLRDGLLDGISNRKSTPKLDVYSDQIVWGRSPVRIDMAGGWTDTPPYSLYSGGNVVNLAIELNGQPPLQVYVKPCKDFHIVLRSIDMGAMEIVSTFDELQDYKKIGSPFSIPKAALSLAGFAPAFSAVSYASLEEQLKDFGAGIEVTLLAAIPAGSGLGTSSILASTVLGAINDFCGLAWDKNEICQRTLVLEQLLTTGGGWQDQYGGVLQGVKLLQTEAGFAQSPLVRWLPDHLFTHPEYKDCHLLYYTGITRTAKGILAEIVSSMFLNSSLHLNLLSEMKAHALDMNEAIQRGSFVEFGRLVGKTWEQNKALDSGTNPPAVEAIIDLIKDYTLGYKLPGAGGGGYLYMVAKDPQAAVRIRKILTENAPNPRARFVEMTLSDKGFQVSRS
notes: L-fucokinase/GDP-fucose pyrophosphorylase (FKP), Bacteroides fragilis 9343, GenBank AY849806, C-terminal domain 518-949 (the abstract says 519-949); The calculated mass is printed as 49 kDa; The abstract gives 519-949, the results 518-949; source: E. coli BL21 (DE3), purified (HiTrap chelating HP, Superdex 200 gel filtration)
B1 was tested, and the “stoichiometry N” value [2] was 2.

B2: full-length L-fucokinase/GDP-β-L-fucose pyrophosphorylase (FKP-FL) from Bacteroides fragilis 9343 (enzyme, UniProt Q58T34 1-949, looked up)
chain: MQKLLSLPSNLVQSFHELERVNRTDWFCTSDPVGKKLGSGGGTSWLLEECYNEYSDGATFGEWLEKEKRILLHAGGQSRRLPGYAPSGKILTPVPVFRWERGQHLGQNLLSLQLPLYEKIMSLAPDKLHTLIASGDVYIRSEKPLQSIPEADVVCYGLWVDPSLATHHGVFASDRKHPEQLDFMLQKPSLAELESLSKTHLFLMDIGIWLLSDRAVEILMKRSHKESSEELKYYDLYSDFGLALGTHPRIEDEEVNTLSVAILPLPGGEFYHYGTSKELISSTLSVQNKVYDQRRIMHRKVKPNPAMFVQNAVVRIPLCAENADLWIENSHIGPKWKIASRHIITGVPENDWSLAVPAGVCVDVVPMGDKGFVARPYGLDDVFKGDLRDSKTTLTGIPFGEWMSKRGLSYTDLKGRTDDLQAVSVFPMVNSVEELGLVLRWMLSEPELEEGKNIWLRSEHFSADEISAGANLKRLYAQREEFRKGNWKALAVNHEKSVFYQLDLADAAEDFVRLGLDMPELLPEDALQMSRIHNRMLRARILKLDGKDYRPEEQAAFDLLRDGLLDGISNRKSTPKLDVYSDQIVWGRSPVRIDMAGGWTDTPPYSLYSGGNVVNLAIELNGQPPLQVYVKPCKDFHIVLRSIDMGAMEIVSTFDELQDYKKIGSPFSIPKAALSLAGFAPAFSAVSYASLEEQLKDFGAGIEVTLLAAIPAGSGLGTSSILASTVLGAINDFCGLAWDKNEICQRTLVLEQLLTTGGGWQDQYGGVLQGVKLLQTEAGFAQSPLVRWLPDHLFTHPEYKDCHLLYYTGITRTAKGILAEIVSSMFLNSSLHLNLLSEMKAHALDMNEAIQRGSFVEFGRLVGKTWEQNKALDSGTNPPAVEAIIDLIKDYTLGYKLPGAGGGGYLYMVAKDPQAAVRIRKILTENAPNPRARFVEMTLSDKGFQVSRS
notes: The calculated mass is printed as 108 kDa; also called L-fucokinase/GDP-fucose pyrophosphorylase; source: E. coli BL21 (DE3), purified (HiTrap chelating HP, Superdex 200 gel filtration)
For B2, the “stoichiometry N” value [2] was 4.
